Assay results from article PMC5792450, “PRRT2 Regulates Synaptic Fusion by Directly Modulating SNARE Complex Assembly” (Cell Reports, 2018).

Biological target: T1, t-SNARE (syntaxin1a/SNAP25) (UniProt P32851 1-288; P60879 1-206)
T1 construct: syntaxin1a; SNAP25; also called t-SNARE complexes; synaptic t-SNAREs
Test: MST; t-SNARE or assembled SNARE complex titrated in solution, up to ∼150 μM t-SNARE and ∼60 μM SNARE complex; binding not saturated; soluble conditions; Syt1 tested likewise
Conditions: both partners purified

T1 sequence (P32851 whole entry, chain 1 of 2): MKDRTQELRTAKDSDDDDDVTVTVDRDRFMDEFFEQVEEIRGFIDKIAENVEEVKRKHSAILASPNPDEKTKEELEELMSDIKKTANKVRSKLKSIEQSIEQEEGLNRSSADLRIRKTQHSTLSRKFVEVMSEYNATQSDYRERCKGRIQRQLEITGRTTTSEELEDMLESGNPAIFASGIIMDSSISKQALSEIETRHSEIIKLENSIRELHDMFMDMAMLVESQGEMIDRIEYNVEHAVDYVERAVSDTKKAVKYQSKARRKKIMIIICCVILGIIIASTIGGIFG
T1 sequence (P60879 whole entry, chain 2 of 2): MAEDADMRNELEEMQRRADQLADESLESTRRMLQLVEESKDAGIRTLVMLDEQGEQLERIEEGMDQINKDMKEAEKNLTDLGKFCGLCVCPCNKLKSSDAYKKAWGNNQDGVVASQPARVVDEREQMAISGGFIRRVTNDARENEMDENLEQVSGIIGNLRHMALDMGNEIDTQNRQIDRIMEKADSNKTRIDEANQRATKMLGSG

B1: proline-rich transmembrane protein 2 (PRRT2), full-length, wild type (natural protein, human, UniProt Q7Z6L0 1-340, looked up)
chain: MAASSSEISEMKGVEESPKVPGEGPGHSEAETGPPQVLAGVPDQPEAPQPGPNTTAAPVDSGPKAGLAPETTETPAGASETAQATDLSLSPGGESKANCSPEDPCQETVSKPEVSKEATADQGSRLESAAPPEPAPEPAPQPDPRPDSQPTPKPALQPELPTQEDPTPEILSESVGEKQENGAVVPLQAGDGEEGPAPEPHSPPSKKSPPANGAPPRVLQQLVEEDRMRRAHSGHPGSPRGSLSRHPSSQLAGPGVEGGEGTQKPRDYIILAILSCFCPMWPVNIVAFAYAVMSRNSLQQGDVDGAQRLGRVAKLLSIVALVGGVLIIIASCVINLGVYK
notes: PRRT2, human, full length, cloned into pGEX6p-1; In the fusion, docking and FRET assays it was reconstituted into liposomes; also called purified PRRT2; recombinant PRRT2; source: E. coli Rosetta2(DE3), purified (glutathione agarose, cleaved off the resin with PreScission Protease)
Kd: ≥ 50 µM
